Substitutions are numbered along the chain they refer to.
Legend:
human C3 = human C3 (Homo sapiens, UniProt P01024); experiment: SPR (Biacore T100) binding to human C3; details: C3 and C3b
Protocol: The kinetic parameters of the candidates are determined using a surface plasmon resonance (SPR) and Biacore T100 device. C3 and different variants thereof (Table 19) are immobilized as a ligand on a HC30M SPR sensor chip (XanTec bionanalytics, Germany) using EDC/[…] linking chemistry. Five increasing concentrations of each molecule (analyte) are consecutively injected using the single cycle kinetics (SCK) mode to determine the kinetic parameters. Regeneration between the candidates is done with 10 mM glycine*HCl, 2 M NaCl, pH 3.5. The data is fitted to a 1:1 Langmuir binding model and the kinetic parameters of on-rate (ka), off-rate (kd), and affinity […] were determined.

[1] = Thermal stability by differential scanning fluorimetry (DSF); format: physicochemical; details: for Melting temperature: DSF, Example 4
Source text: Differential scanning fluorimetry (DSF) measures protein unfolding by monitory changes in fluorescence as a function of temperature.
The temperature of protein unfolding (Tm) is tied to the stability of antibodies, specifically to aggregation during storage and long-term stability of the therapeutic product. The thermal transitions of monoclonal antibody CH2 and CH3 domains are typically invariant for different antibodies within an isotype, with the CH2 domain unfolding prior to the CH3 domain.

Alternative Pathway = experiment: WEISLAB Complement system Screen, alternative pathway MAC (C5b-C9) formation; format: biochemical, human; details: single dose of 2 μM; AP-dependent MAC formation
Protocol: (§1) To identify antibodies that block all 3 complement pathways, antibodies are screened using an enzyme immunoassay for the qualitative determination of functional classical, lectin and alternative complement pathways in human serum using the WEISLAB® Complement system Screen (Svar Life Science AB, Malmö, Sweden).
(§2) To monitor inhibition of the complement system in human serum, the scFv of the invention or the comparator molecules are tested using an enzyme immunoassay for the qualitative determination of functional classical, lectin and alternative complement pathways in human serum using the WEISLAB® Complement system Screen (Svar Life Science AB, Malmö, Sweden), following the supplier's instructions. The amount of C5b-C9 neoantigen generated is proportional to the functional activity of complement pathways. The scFv of the invention and the comparator molecules are tested in a concentration response curve and the IC50 for the inhibition is calculated using the GraphPadPrism software and a non-linear, 4 parameters curve regression.

Classical Pathway = experiment: WEISLAB Complement system Screen, classical pathway MAC (C5b-C9) formation; format: biochemical, human; details: single dose of 2 μM; CP-dependent MAC formation
Protocol: as §1, §2

Lectin Pathway = experiment: WEISLAB Complement system Screen, lectin pathway MAC (C5b-C9) formation; format: biochemical, human; details: single dose of 2 μM; LP-dependent MAC formation
Protocol: as §1, §2

complement pathways = experiment: Complement inhibition assays, comparison with parental Clone IV; format: biochemical, human; details: in words
Source text: as §1

[2] = Concentration-dependent monomeric stability study at 37° C.; format: physicochemical; details: for Loss in monomeric content after 2 weeks of incubation at 37° C.: Clone XIII at 150 mg/mL, Clone XIV at 50 mg/mL; for Loss in monomeric content with concentration: Clone XIII concentrated to 150 mg/mL, Clone XIV to 50 mg/mL
[3] = 40 nmol IVT, scFv versus Fab (ranibizumab); in words; cited from earlier work

Sequence of human C3 (P01024 23-1663): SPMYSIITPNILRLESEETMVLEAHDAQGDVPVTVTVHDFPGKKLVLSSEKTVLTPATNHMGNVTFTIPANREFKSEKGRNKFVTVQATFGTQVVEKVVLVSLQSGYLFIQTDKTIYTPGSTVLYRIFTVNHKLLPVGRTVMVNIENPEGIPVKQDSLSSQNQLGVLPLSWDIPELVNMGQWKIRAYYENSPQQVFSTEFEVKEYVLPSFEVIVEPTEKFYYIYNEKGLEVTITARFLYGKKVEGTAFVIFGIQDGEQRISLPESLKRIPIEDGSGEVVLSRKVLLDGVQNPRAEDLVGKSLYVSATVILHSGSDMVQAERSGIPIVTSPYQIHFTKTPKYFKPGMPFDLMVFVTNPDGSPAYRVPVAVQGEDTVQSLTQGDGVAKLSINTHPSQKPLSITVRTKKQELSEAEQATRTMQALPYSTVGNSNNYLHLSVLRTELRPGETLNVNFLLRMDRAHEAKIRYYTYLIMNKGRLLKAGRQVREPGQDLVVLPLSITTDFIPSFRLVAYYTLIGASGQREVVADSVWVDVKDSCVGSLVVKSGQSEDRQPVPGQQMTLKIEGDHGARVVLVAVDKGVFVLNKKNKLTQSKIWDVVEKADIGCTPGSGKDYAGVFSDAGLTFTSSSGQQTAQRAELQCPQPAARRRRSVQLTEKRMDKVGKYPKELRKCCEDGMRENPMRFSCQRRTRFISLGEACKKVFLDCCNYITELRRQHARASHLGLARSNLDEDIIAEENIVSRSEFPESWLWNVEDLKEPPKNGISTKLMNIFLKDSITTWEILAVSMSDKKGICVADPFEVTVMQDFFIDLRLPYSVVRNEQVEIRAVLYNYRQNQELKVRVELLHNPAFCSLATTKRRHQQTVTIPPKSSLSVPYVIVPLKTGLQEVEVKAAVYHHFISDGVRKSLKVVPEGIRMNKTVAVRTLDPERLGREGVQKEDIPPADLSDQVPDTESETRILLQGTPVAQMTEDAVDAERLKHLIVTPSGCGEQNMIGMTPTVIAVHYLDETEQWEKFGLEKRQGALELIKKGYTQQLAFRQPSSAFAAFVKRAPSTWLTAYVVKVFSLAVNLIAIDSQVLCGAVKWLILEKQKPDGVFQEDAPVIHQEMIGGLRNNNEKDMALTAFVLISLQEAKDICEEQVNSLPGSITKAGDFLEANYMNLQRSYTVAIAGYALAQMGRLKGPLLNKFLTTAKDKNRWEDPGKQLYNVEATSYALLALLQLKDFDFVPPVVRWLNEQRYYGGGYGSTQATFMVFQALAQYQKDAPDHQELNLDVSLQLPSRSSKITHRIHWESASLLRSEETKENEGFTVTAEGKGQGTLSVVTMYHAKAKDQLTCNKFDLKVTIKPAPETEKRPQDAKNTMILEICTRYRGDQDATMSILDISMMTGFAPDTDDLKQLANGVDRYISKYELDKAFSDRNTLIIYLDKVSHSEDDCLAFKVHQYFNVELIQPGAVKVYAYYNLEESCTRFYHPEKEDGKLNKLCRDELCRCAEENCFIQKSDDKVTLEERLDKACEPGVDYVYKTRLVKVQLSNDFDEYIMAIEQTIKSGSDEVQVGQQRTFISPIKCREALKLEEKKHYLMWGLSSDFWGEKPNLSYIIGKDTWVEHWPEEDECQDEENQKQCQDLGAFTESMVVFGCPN

B1: Clone VI: Clone V with additional rabbit residues replaced by germline, SEQ ID NO: 34 (protein)
scFv: MQLVLTQSPSASASLGASVKLTCTLSSAHKTYTIDWYQQQPEKGPRYLMQLKSDGSYTKGTGVPDRFSGSSSGAERYLTISSLQSEDEADYYCGTDYGGGYVFGGGTKLTVLGGGGGSGGGGSGGGGSGGGGSQVQVVESGGGSVQPGRSLRLSCAASGFSLYNYAMNWVRQAPGKGLEWIGIINTDGNTNYASWAKGRFTISTDNSKNTLYLQMNSLRAEDTASYYCARAVGYHHHALDPWGQGTSVTVSS
modifications: ScFv
Binding affinity to C3 and C3b compared to parental molecule Clone IV (human C3; in words): comparable to the parental molecule
Increase of thermal stability of the construct ([1]; versus preceding variant): 11.7 °C

B2: Clone XII: scFv combining affinity maturation substitutions and disulfide bond stabilization, SEQ ID NO: 40 (protein)
scFv: B1 scFv with G44C, D54E, A157V, T186V, D187G, N189G, L211V, H237A, A238R, Q244C
modifications: ScFv
Melting temperature [1]: 70.4 °C

B3: Clone IV: rabbit-derived parental anti-C3 antibody, SEQ ID NO: 32 (protein)
chain: QSVKESGGRLVTPGTPLTLTCTVSGFSLYNYAMNWVRQAPGKGLEWIGIINTDGNTNYASWAKGRFTISTTSSTTVDLKITSPTTEDTATYFCPRAVGYHHHALDPWGPGTLVTVSSGGGGSGGGGSGGGGSGGGGASELVLTQSPSVSAALGASAKLTCTLSSAHKTYTIDWYQQQQGEAPRYLMQLKSDGSYTKGTGVPDRFSGSSSGADRYLIIPSVQADDEADYYCGTDYGGGYVFGGGTQLTVTG
modifications: scFv
Residual alternative pathway complement activity with Clone IV [%] (Alternative Pathway): −0.1 ± 0.2%
Residual classical pathway complement activity with Clone IV (Classical Pathway): 2.9 ± 0.0%
Residual lectin pathway complement activity with Clone IV [%] (Lectin Pathway): 0.5 ± 0.9%

B4: Clone VIII: affinity maturation hit scFv, SEQ ID NO: 36 (protein)
scFv: MQLVLTQSPSASASLGASVKLTCTLSSAHKTYTIDWYQQQPEKGPRYLMQLKSEGSYTKGTGVPDRFSGSSSGAERYLTISSLQSEDSAVYYCGTEGVGGYVFGCGTKLTVLGGGGGSGGGGSGGGGSGGGGSQVQVVESGGGSVQPGRSLRLSCAVSGFSLYNYAMNWVRQAPGKCLEWIGIINVGGGTNYASWAKGRFTISTDNSKNTVYLQMNSLRAEDTASYYCARAVGYHHSRLDPWGQGTSVTVSS
modifications: ScFv
Increase in the binding affinity to C3 and C3b compared to Clone IV (human C3): approximately 10 fold
Complement inhibition activity compared to parental molecule Clone IV (complement pathways): superior performance

B5: Clone XIV: scFv combining affinity maturation substitutions and disulfide bond stabilization, SEQ ID NO: 42 (protein)
scFv: B4 scFv with G44C, S88E, V90D, C105G, C177G, Q244C
modifications: ScFv
Loss in monomeric content after 2 weeks of incubation at 37° C. [2]: 2.3%
Loss in monomeric content with concentration [2]: 1.6%
Melting temperature [1]: 67.2 °C

B6: Clone XIII: scFv combining affinity maturation substitutions and disulfide bond stabilization, SEQ ID NO: 41 (protein)
scFv: B4 scFv with G44C, S88E, V90D, C105G, C177G, S237A, Q244C
modifications: ScFv
Loss in monomeric content after 2 weeks of incubation at 37° C. [2]: 2.2%
Loss in monomeric content with concentration [2]: no loss
Melting temperature [1]: 67.7 °C

B7: Beovu: comparator in EpiMatrix table; brolucizumab is a scFv (antibody, chains of the INN, looked up, V domains shown)
VH: EVQLVESGGGLVQPGGSLRLSCTASGFSLTDYYYMTWVRQAPGKGLEWVGFIDPDDDPYYATWAKGRFTISRDNSKNTLYLQMNSLRAEDTAVYYCAGGDHNSGWGLDIWGQGTLVTVSS
VL: EIVMTQSPSTLSASVGDRVIITCQASEIIHSWLAWYQQKPGKAPKLLIYLASTLASGVPSRFSGSGSGAEFTLTISSLQPDDFATYYCQNVYLASTNGANFGQGTKLTVL
modifications: scFv
notes: brolucizumab is a scFv
Retinal penetration after equimolar intravitreal injection [3]: improved retinal penetration

From patent US12344663B2, “Anti-C3 antibodies and antigen-binding fragments thereof and their uses for treating eye or ocular diseases” (CDR-Life AG, priority 2021, dated 2025)
